Laboratory results from paper doi:10.1101/2025.09.11.675134, “Biodistribution-Driven Discovery Identifies a Glycosidase-Cleavable Linker to Reprogram Radiotheranostics” (bioRxiv, 2025).
Read-outs that look alike come from different tables or passages of the source.

Key:
[1] = PET/CT quantification of 86Y-labeled variants in AR42J xenograft mice; assay type: in vivo; details: athymic nude, mouse, in vivo, iv, total radioactivity, 86Y-labeled, PET/CT, AR42J xenograft mice, mean ± SD, n = 3; for SUV at 1 h: 1 h post-injection; for SUV at 24 h: 24 h post-injection
Method: For studies involving three variants (DOTA -TATE, DOTA-MVK(ε)-TATE, and DOTA-β-Gal-TATE), AR42J cells (5 × 10^6 cells per mouse) were subcutaneously inoculated into the right shoulder of the mice. Tumors were allowed to grow for 3 weeks, reaching a volume of 100 –200 mm³ before being used in subsequent experiments. For biodistribution or PET imaging studies, mice bearing subcutaneous AR42J tumors were administered 1.4 – 1.8 MBq (1 μg) of 111In-labeled DOTA-TATE variants or 2.7 – 4.9 MBq (1 μg) of 86Y-labeled DOTA-TATE variants via […]
tail vein injection. […]
PET imaging to assess the uptake of three 86Y-labeled DOTA-TATE variants (2.7 – 4.9 MBq, 1 μg) in the kidney and tumor was performed at 1, 4, and 24 hours post-injection (n = 3 per cohort) in mice bearing AR42J tumors using the MRS*PET/CT 120 scanner (MR Solutions, Guildford, UK). PET/CT data acquisition was managed using Preclinical Scan software (version 4.2.4.0, MR Solutions). Mice were anesthetized with 2% isoflurane, and static PET sc ans were acquired over 10 min. CT scans were obtained for attenuation correction and anatomical co-registration.
PET data were reconstructed using three-dimensional ordered-subsets expectation maximization, and were subsequently normalized, decay - and dead-time–corrected prior to analysis. PET/CT images were analyzed using MIM software (version 7.2.7, MIM Software Inc., Beachwood, OH, USA), and the quantitative evaluation of the maximum standardized uptake (SUVmax) and the average standardized uptake values (SUVmean) in the kidney and tumor were also performed. […]

[2] = Ex vivo biodistribution of 86Y-labeled variants in AR42J tumor-bearing mice; details: athymic nude, mouse, iv, 1 ug, total radioactivity, mean; for tissue uptake at 1 h: 1 h post-injection; for tissue uptake at 4 h: 4 h post-injection; for tissue uptake at 24 h: 24 h post-injection
Method: To independently confirm these observations, ex vivo biodistribution studies were conducted using the same ^86Y-labeled compounds at matched timepoints (Fig. S16; Table S3). […]
For studies involving three variants (DOTA -TATE, DOTA-MVK(ε)-TATE, and DOTA-β-Gal-TATE), AR42J cells (5 × 10^6 cells per mouse) were subcutaneously inoculated into the right shoulder of the mice. Tumors were allowed to grow for 3 weeks, reaching a volume of 100 –200 mm³ before being used in subsequent experiments. For biodistribution or PET imaging studies, mice bearing subcutaneous AR42J tumors were administered 1.4 – 1.8 MBq (1 μg) of 111In-labeled DOTA-TATE variants or 2.7 – 4.9 MBq (1 μg) of 86Y-labeled DOTA-TATE variants via tail vein injection. Biodistribution studies with 111In-labeled DOTA -TATE variants were performed 1 hour post -injection (n = 3 per cohort), while studies with 86Y-labeled DOTA-TATE variants were conducted at 1, 4, and 24 hours post -injection (n = 3 per cohort). Mice were euthanized by CO2 asphyxiation, and 10 tissues, including tumors, were collected. All samples were weighed and counted on a gamma counter (2480 Wizard 3, Perkin Elmer Inc., Waltham, MA, USA). Results are presented as percentage of injected activity per gram (%IA/g) and mean values ± standard deviations. […]

[3] = blood, ex vivo, n = 3, read-out: Blood uptake
[4] = femur, ex vivo, n = 3, read-out: Femur uptake
[5] = heart, ex vivo, n = 3, read-out: Heart uptake
[6] = intestine, ex vivo, n = 3, read-out: Intestine uptake
[7] = ex vivo, n = 3, read-out: Tumor uptake
[8] = kidney, ex vivo, n = 3, read-out: Kidney uptake
[9] = liver, ex vivo, n = 3, read-out: Liver uptake
[10] = lung, ex vivo, n = 3, read-out: Lung uptake
[11] = muscle, ex vivo, n = 3, read-out: Muscle uptake
[12] = spleen, ex vivo, n = 3, read-out: Spleen uptake

Which SUV at 1 h ([1]; 2.7–4.9 MBq (1 μg), read-out: Kidney SUVmax) does the source give for `C[C@@H](O)[C@H](NC(=O)[C@@H]1CSSC[C@H](NC(=O)[C@@H](Cc2ccccc2)NC(=O)CN2CCN(CC(=O)O)CCN(CC(=O)O)CCN(CC(=O)O)CC2)C(=O)N[C@@H](Cc2ccc(O)cc2)C(=O)N[C@H](Cc2c[nH]c3ccccc23)C(=O)N[C@@H](CCCCN)C(=O)N[C@@H]([C@@H](C)O)C(=O)N1)C(=O)O` [^86Y-DOTA-TATE, metal not drawn, reference compound] here?
Its SUV at 1 h is 0.95 ± 0.04 SUV.

What about the SUV at 1 h ([1]; read-out: Tumor SUVmax) of the same molecule?
Its SUV at 1 h is 0.85 ± 0.14 SUV.

And the SUV at 4 h ([1]; 4 h post-injection, read-out: Kidney SUVmax)?
Its SUV at 4 h is 0.62 ± 0.06 SUV.

What about the SUV at 24 h ([1]; read-out: Kidney SUVmax) of the same molecule?
Its SUV at 24 h is 0.41 ± 0.02 SUV.

And the SUV at 24 h ([1]; read-out: Tumor SUVmax)?
Its SUV at 24 h is 0.55 ± 0.04 SUV.

What about the tissue uptake at 1 h ([2]; blood, i.v. 1 μg (2.7–4.9 MBq), ex vivo gamma counting, n = 3, read-out: Blood uptake) of the same molecule?
The tissue uptake at 1 h was 0.22 %ID/g.

And the tissue uptake at 4 h [2, 3]?
The tissue uptake at 4 h was 0.14 %ID/g.

And the tissue uptake at 24 h [2, 3]?
The tissue uptake at 24 h was 0.03 %ID/g.

And the tissue uptake at 1 h [2, 4]?
Its tissue uptake at 1 h is 0.47 %ID/g.

And the tissue uptake at 4 h [2, 4]?
Its tissue uptake at 4 h is 0.35 %ID/g.

And the tissue uptake at 24 h [2, 4]?
Its tissue uptake at 24 h is 0.2 %ID/g.

And the tissue uptake at 1 h [2, 5]?
The tissue uptake at 1 h was 0.37 %ID/g.

What about the tissue uptake at 4 h [2, 5] of the same molecule?
Its tissue uptake at 4 h is 0.25 %ID/g.

What about the tissue uptake at 24 h [2, 5] of the same molecule?
Its tissue uptake at 24 h is 0.09 %ID/g.

And the tissue uptake at 1 h [2, 6]?
Its tissue uptake at 1 h is 0.37 %ID/g.

And the tissue uptake at 4 h [2, 6]?
Its tissue uptake at 4 h is 0.51 %ID/g.

And the tissue uptake at 24 h [2, 6]?
The tissue uptake at 24 h was 0.05 %ID/g.

And the tissue uptake at 1 h [2, 7]?
The tissue uptake at 1 h was 5.98 %ID/g.

And the tissue uptake at 4 h [2, 7]?
The tissue uptake at 4 h was 4.83 %ID/g.

What about the tissue uptake at 24 h [2, 7] of the same molecule?
Its tissue uptake at 24 h is 3.48 %ID/g.

And the tissue uptake at 1 h [2, 8]?
The tissue uptake at 1 h was 9.29 %ID/g.

What about the tissue uptake at 4 h [2, 8] of the same molecule?
Its tissue uptake at 4 h is 6.61 %ID/g.

And the tissue uptake at 24 h [2, 8]?
The tissue uptake at 24 h was 3.74 %ID/g.

What about the tissue uptake at 1 h [2, 9] of the same molecule?
The tissue uptake at 1 h was 0.29 %ID/g.

And the tissue uptake at 4 h [2, 9]?
The tissue uptake at 4 h was 0.25 %ID/g.

And the tissue uptake at 24 h [2, 9]?
The tissue uptake at 24 h was 0.15 %ID/g.

And the tissue uptake at 1 h [2, 10]?
Its tissue uptake at 1 h is 0.83 %ID/g.

And the tissue uptake at 4 h [2, 10]?
Its tissue uptake at 4 h is 0.34 %ID/g.

And the tissue uptake at 24 h [2, 10]?
The tissue uptake at 24 h was 0.13 %ID/g.

And the tissue uptake at 1 h [2, 11]?
Its tissue uptake at 1 h is 0.44 %ID/g.

What about the tissue uptake at 4 h [2, 11] of the same molecule?
The tissue uptake at 4 h was 0.38 %ID/g.

And the tissue uptake at 24 h [2, 11]?
The tissue uptake at 24 h was 0.1 %ID/g.

And the tissue uptake at 1 h [2, 12]?
Its tissue uptake at 1 h is 0.4 %ID/g.

And the tissue uptake at 4 h [2, 12]?
Its tissue uptake at 4 h is 0.25 %ID/g.

What about the tissue uptake at 24 h [2, 12] of the same molecule?
The tissue uptake at 24 h was 0.15 %ID/g.
